This series in a line: protein stability index of a GFP-peptide fusion (GPS, HEK-293T) (PSI 1-6); higher = more stable.
The mark [1] stands for this setting: treatment: DMSO, c terminus: a fixed tail appended.
[2] abbreviates: treatment: MLN4924 1 uM, 8 h, c terminus: a fixed tail appended.

± gives the standard deviation.

Here are results for 53 sequences from the supplement of paper PMC10567573.
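Further: 24-mer peptide tiles fused after GFP, lentivirally expressed, FACS-sorted into six equal bins by GFP/DsRed ratio, decoded by Illumina sequencing, PSI is the read-weighted mean bin number.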

Regarding EIEQLLARLTGVNDKMAEYTNSAG [GOSR1], the protein stability index was 2.29 ± 0.24 under setting [1] and 2.46 ± 0.45 under setting [2].

Turning to EIETWVREHCPENRERVVSLIEDL [ZNF449], the protein stability index amounted to 3.9 ± 0.2 under setting [1] and 4.01 ± 0.29 under setting [2].

Take EIFRQRFRQFGYQDSPGPREAVSQ [ZNF24]: the protein stability index is 2.7 ± 0.21 under setting [1] and 3.25 ± 0.082 under setting [2].

Regarding EIILYWKHSTIFDVGENLTVPDEF [SLC25A25], the protein stability index is, setting by setting: under setting [1], 2.23 ± 0.85; under setting [2], 2.1 ± 0.39.

Take EILPFLYLGSAYHASKCEFLANLH [DUSP5]: the protein stability index runs as follows: under setting [1], 2.94 ± 0.5; under setting [2], 2.92 ± 0.75.

EILTLLQGVHQGAGFQDIPKRCLK [TSN]: the protein stability index under setting [1] is 2.08 ± 0.3 and the protein stability index under setting [2] was found to be 2.41 ± 0.49.

EIPDQNIDVEALQVAFGSLYRDDV [GMCL1] gave a protein stability index under setting [1] of 4.58 ± 0.32 and a protein stability index under setting [2] of 4.64 ± 0.094.

EIRMWQTREKAKFSDGEKCRREAF [PHTF1] showed a protein stability index under setting [1] of 2.98 ± 0.14 and a protein stability index under setting [2] of 3.1 ± 0.31.

Consider EKERRKKQQWEIMHKHNETSQKIA [RSPH3], for which the protein stability index is, setting by setting: under setting [1], 4.44 ± 0.42; under setting [2], 4.91 ± 0.26.

Turning to EKLCSISLSHINAYACLVCGKYFQ [USP39], the protein stability index is, setting by setting: under setting [1], 2.67 ± 0.56; under setting [2], 2.61 ± 0.58.

Regarding EKMKKRKMSNSFHGIRPPQLEQPE [RHOBTB3], the protein stability index is, setting by setting: under setting [1], 4.65 ± 0.12; under setting [2], 4.77 ± 0.14.

For the sequence ELAELEDALRNLKCGSGARGGDGE [TRADD], the protein stability index worked out at 4.7 ± 0.39 under setting [1] and 4.66 ± 0.07 under setting [2].

With ELEGLIADPDEMRMQALLIRERIL [FEM1C], the protein stability index turned out to be 2.54 ± 0.48 under setting [1] and 2.65 ± 0.43 under setting [2].

With ELERLIDKAMKKDGLVGMAIVGGM [FIS1], the protein stability index came out at 2 ± 0.29 under setting [1] and 2.46 ± 0.37 under setting [2].

As for ELKTFRLKTRSWAGERSRRELCSR [CDC25B], the protein stability index by setting is: under setting [1], 3.07 ± 0.099; under setting [2], 3.44 ± 0.56.

For the sequence ELSSLGSDSEANGFAERRIDKFGF [TBC1D10A], the protein stability index under setting [1] is 3.82 ± 0.2 and the protein stability index under setting [2] came to 3.83 ± 0.15.

Take ELVLEQQLDREAQARHQLVLTAVD [PCDHGC5]: the protein stability index was determined as 3.99 ± 0.15 under setting [1] and 4.103 ± 0.038 under setting [2].

Regarding EMEEGVKESLCAKEEKCQGKGDDS [KCNA4], the protein stability index by setting is: under setting [1], 5.62 ± 0.19; under setting [2], 5.57 ± 0.33.

In the case of EMPTQPGKPLIPPMNRRNILVMKH [NETO1], the protein stability index runs as follows: under setting [1], 3.21 ± 0.045; under setting [2], 3.27 ± 0.24.

Take EMYQVSRLQHICELFIITQLQSMP [RHOBTB3]: the protein stability index is, setting by setting: under setting [1], 2.21 ± 0.23; under setting [2], 2.16 ± 0.44.

For ENGYGFHLNAIRGLPGSFIKEVQK [PDZK1], the protein stability index was 2.62 ± 0.18 under setting [1] and 2.97 ± 0.43 under setting [2].

As for ENRLSVFFSVIFMTVGILSNSLAI [PTGFR], the protein stability index reads like this: under setting [1], 3.14 ± 0.25; under setting [2], 3.36 ± 0.17.

For the sequence ENRTLQVLRAEHRGFQEENKALWE [CBY2], the protein stability index is 4.37 ± 0.37 under setting [1] and 4.38 ± 0.17 under setting [2].

As for ENTIAGANHTHTFYGHSHHSHHGH [C10orf62], the protein stability index was 3.58 ± 0.25 under setting [1] and 3.78 ± 0.23 under setting [2].

On to EPHKCPECGKRFLRSSDLYRHQRL [ZNF449], for which the protein stability index runs as follows: under setting [1], 3.96 ± 0.36; under setting [2], 4.39 ± 0.47.

Consider EPIPFWTFLSRILTGLNYEAPKYH [NSDHL], for which the protein stability index came out at 2.62 ± 0.23 under setting [1] and 2.76 ± 0.42 under setting [2].

As for EQEIQFEDFTNTLRELGHAEHEIT [PKD2L1], the protein stability index is, setting by setting: under setting [1], 5.16 ± 0.2; under setting [2], 5.17 ± 0.32.

Consider EQQRIIAILLDAHHKTYDPTYSDF [VDR], for which the protein stability index was 2.48 ± 0.37 under setting [1] and 2.27 ± 0.15 under setting [2].

On to ERAKREMVMYSITVAFWLLNSWLW [MFF], for which the protein stability index runs as follows: under setting [1], 2.48 ± 0.48; under setting [2], 1.87 ± 0.39.

As to ERLAEAEKSQLIMQAEAEAASVRM [FLOT1], the protein stability index is, setting by setting: under setting [1], 4.84 ± 0.39; under setting [2], 4.66 ± 0.3.

With ERLTKQEKRPLFLAPDFDRWLDES [HACD3], the protein stability index under setting [1] worked out at 3.87 ± 0.21 and the protein stability index under setting [2] is 3.93 ± 0.38.

As for ERPYGCDECEKAYFYMSCLVKHKR [ZNF649], the protein stability index by setting is: under setting [1], 2.48 ± 0.16; under setting [2], 2.81 ± 0.28.

In the case of ERTEESSAVQYFQFYGYLSQQQNM [CARM1], the protein stability index came to 2.56 ± 0.25 under setting [1] and 2.82 ± 0.52 under setting [2].

In turn, ESDDAFDTVTIPVPSEEPQESDQT [IQUB] returned a protein stability index under setting [1] of 5.69 ± 0.24 and a protein stability index under setting [2] of 5.72 ± 0.3.

Take ESFLAWKKRKRQEKIDKLEQDMER [ZC3H15]: the protein stability index under setting [1] amounted to 3.8 ± 0.2 and the protein stability index under setting [2] is 4.22 ± 0.33.

As to ESIAHIGDVMFTGTADGRVVKLEN [APMAP], the protein stability index reads like this: under setting [1], 4.11 ± 0.17; under setting [2], 4.38 ± 0.19.

Take ESLSAIEAELEKVAHQLQALRRG [CHGA]: the protein stability index reads like this: (treatment: DMSO, c terminus: native) 3.19 ± 0.42; (treatment: MLN4924 1 uM, 8 h, c terminus: native) 3 ± 0.72.

In the case of ESTELMTHLEAQNRIKGCHDHLTL [PDLIM4], the protein stability index reads like this: under setting [1], 3.83 ± 0.13; under setting [2], 3.88 ± 0.15.

Sequence ESTRELGELLGEARYYLVQGLIED [KCTD13] displayed a protein stability index under setting [1] of 2.88 ± 0.19 and a protein stability index under setting [2] of 2.91 ± 0.31.

ESWDEEDKRNYPSLELDKMAHGYG [CHGB] yielded a protein stability index under setting [1] of 4.87 ± 0.1 and a protein stability index under setting [2] of 4.87 ± 0.14.

In the case of ESYPEDTVFYIPEDHKPGTFPKAL [DLC1], the protein stability index is, setting by setting: under setting [1], 4.13 ± 0.31; under setting [2], 4.22 ± 0.21.

For the sequence ETCDLGKIKPEARRYLEKSIKMGK [NLN], the protein stability index reads like this: under setting [1], 4.09 ± 0.18; under setting [2], 4.45 ± 0.23.

On to ETETLVTREAVTEILGIEPDREKG [TSN], for which the protein stability index amounted to 5.5 ± 0.19 under setting [1] and 5.39 ± 0.33 under setting [2].

On to ETLLKVDLENRCQSLTEDLEFRKS [LMNB1], for which the protein stability index by setting is: under setting [1], 4.42 ± 0.22; under setting [2], 4.43 ± 0.2.

Regarding ETVDLVLKLKNKLLQADREHLPVK [DENND6A], the protein stability index is 2.86 ± 0.41 under setting [1] and 2.72 ± 0.38 under setting [2].

For the sequence EVDAAPPVDLNKILEDMRCQYEAL [KRT36], the protein stability index is, setting by setting: under setting [1], 4.59 ± 0.13; under setting [2], 4.68 ± 0.096.

With EVDSGRQIEYEYKLAQALHEMREQ [LMNB1], the protein stability index under setting [1] was found to be 4.51 ± 0.23 and the protein stability index under setting [2] is 4.43 ± 0.23.

Consider EVKIEEPVSMEMDNHMSDKDESCY [INTS3], for which the protein stability index amounted to 5.31 ± 0.37 under setting [1] and 5.37 ± 0.19 under setting [2].

For EVLSKALSQRTITVGVYEAAKLLN [GADD45A], the protein stability index is 2.77 ± 0.45 under setting [1] and 2.56 ± 0.53 under setting [2].

As to EVQDLLEGCELPDLPSSLLLPEDM [SMG5], the protein stability index is 4.5 ± 0.13 under setting [1] and 4.67 ± 0.2 under setting [2].

As to EVQGDQQAWFGFAGTPGYLSPEVL [CAMK2B], the protein stability index turned out to be 3.07 ± 0.35 under setting [1] and 3.14 ± 0.21 under setting [2].

Take EVRSKAEEVVSFVKKNVLVTGGFF [FUNDC2]: the protein stability index stood at 2.17 ± 0.37 under setting [1] and 2.25 ± 0.34 under setting [2].

As for EVSQHIKMRMGGRVDFEEFVELIG [CABP4], the protein stability index reads like this: under setting [1], 2.44 ± 0.12; under setting [2], 3 ± 0.44.
